Data: patent publication US20060229272A1 (published 2006)
No end group written: not given here.

B1: THGFGHRVWSVPLRS (SEQ ID NO:96) (peptide)
peptide: THGFGHRVWSVPLRS
notes: In the assay it stood fused to the phage coat protein; also called Peptide Modulator of HGPRBMY11
B2: LFASSDWSSFPVLVF (SEQ ID NO:81) (peptide)
peptide: LFASSDWSSFPVLVF
modifications: also: displayed fused to phage coat protein, not free peptide
notes: In the assay it stood fused to the phage coat protein, not as a free peptide; The synthesis of free N-acetyl peptide amides is described only as a method; also called Peptide Modulator of HGPRBMY11

Molecular target: T1, HGPRBMY11 polypeptide (human G-protein coupled receptor, SEQ ID NO:2) (human, UniProt Q9NS75 17-346)
T1 construct: 330 amino acids; also called GPCR74; GPCR 81
T1 sequence: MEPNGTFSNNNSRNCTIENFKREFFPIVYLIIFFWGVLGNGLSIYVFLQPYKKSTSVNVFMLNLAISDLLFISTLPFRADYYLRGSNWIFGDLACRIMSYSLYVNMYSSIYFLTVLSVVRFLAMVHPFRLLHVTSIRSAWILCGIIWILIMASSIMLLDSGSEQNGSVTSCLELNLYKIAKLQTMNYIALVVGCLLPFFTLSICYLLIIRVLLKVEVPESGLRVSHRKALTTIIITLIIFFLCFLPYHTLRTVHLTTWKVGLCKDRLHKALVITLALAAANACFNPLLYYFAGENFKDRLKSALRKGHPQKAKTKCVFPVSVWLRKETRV
Test: phage display panning of M13KE peptide libraries on CHO-K1 cells transfected with HGPRBMY11, after preadsorption on integrin and parental cells; bound phage eluted and sequenced
Procedure: On the day of panning, growth medium was discarded and cells were washed with 10 ml PBS by allowing the buffer to flow over the cells. The PBS was removed and 10 ml Tris-EDTA detaching buffer (Gibco Cat. # 13150-016; no trypsin) was added for 2 min. Plates were tapped and/or pipetted up and down to detach cells. This was done quickly to minimize the exposure of the cells to this reagent. Cells were pelleted by centrifugation at 3 K, and then washed with 20 ml PBS. Cells were resuspended cells in PBS with 2% milk blocking agent plus protease inhibitor (EDTA-free; Roche Cat. # 1 873 580). For each library, cell suspensions of ˜500 ul were used. Cells were blocked for 30-60 min with gentle rocking at room temperature. The integrin-coated wells were washed 3× in PBST, then blocked with 2% BSA in PBS for 30 min or more. To preadsorb against integrin, input phage was added to the integrin-coated wells, and incubated for 30 min or more.
At this stage, the blocked parental cells were divided into the required number of aliquots (500 ul aliquot/library). The phage supernatants were added from the integrin-preadsorption step. Preadsorption against the parental cells was carried out for 30 min or more with gentle rocking. […]
Standard procedures were used. […] Colonies were grown in liquid medium and analyzed by standard sequencing procedures.

Row | Binder | binding result
1 | B1 | binds
2 | B2 | binds
